Tests used:
[1] = target: T1, CD30-His (Sino Biological, 10777-H08H) (UniProt P28908 19-379); test: ELISA, scFv-Fc titrated on plate coated with 1 µg/mL CD30-His
T1 construct: Bought protein; also called CD30-His protein; CD30 protein; not shown: His tag
T1 sequence (looked up): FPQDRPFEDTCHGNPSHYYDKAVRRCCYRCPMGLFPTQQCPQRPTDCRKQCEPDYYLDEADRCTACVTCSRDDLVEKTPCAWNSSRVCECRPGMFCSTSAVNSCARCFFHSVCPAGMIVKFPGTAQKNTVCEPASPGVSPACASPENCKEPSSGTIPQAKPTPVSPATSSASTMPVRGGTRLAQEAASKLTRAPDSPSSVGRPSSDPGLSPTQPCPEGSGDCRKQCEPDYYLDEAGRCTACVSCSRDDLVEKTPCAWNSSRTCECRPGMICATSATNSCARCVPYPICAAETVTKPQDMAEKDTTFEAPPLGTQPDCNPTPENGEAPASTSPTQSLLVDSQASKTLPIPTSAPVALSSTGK
Description: For ELISA, the eleven purified anti-CD30 scFv-Fc forms and the positive control HRS scFV-Fc were 1/3 diluted for 10 points starting from 10 μg/mL in a plate coated with 1 μg/mL CD30-His protein. After treatment with a secondary antibody (anti-hIgG-Fc-HRP (Invitrogen, H10007)), a color was developed with TMB. OD₄₅₀ values were read using an ELISA reader, and EC₅₀ values were measured by means of Graph prism (FIG. 1, Table 3).

[2] = target: T2, CD30 expressed on cells (CD30-293T, SUDHL1, HDLM-2) (UniProt P28908 19-595); test: cell-based or functional assay
T2 sequence (looked up): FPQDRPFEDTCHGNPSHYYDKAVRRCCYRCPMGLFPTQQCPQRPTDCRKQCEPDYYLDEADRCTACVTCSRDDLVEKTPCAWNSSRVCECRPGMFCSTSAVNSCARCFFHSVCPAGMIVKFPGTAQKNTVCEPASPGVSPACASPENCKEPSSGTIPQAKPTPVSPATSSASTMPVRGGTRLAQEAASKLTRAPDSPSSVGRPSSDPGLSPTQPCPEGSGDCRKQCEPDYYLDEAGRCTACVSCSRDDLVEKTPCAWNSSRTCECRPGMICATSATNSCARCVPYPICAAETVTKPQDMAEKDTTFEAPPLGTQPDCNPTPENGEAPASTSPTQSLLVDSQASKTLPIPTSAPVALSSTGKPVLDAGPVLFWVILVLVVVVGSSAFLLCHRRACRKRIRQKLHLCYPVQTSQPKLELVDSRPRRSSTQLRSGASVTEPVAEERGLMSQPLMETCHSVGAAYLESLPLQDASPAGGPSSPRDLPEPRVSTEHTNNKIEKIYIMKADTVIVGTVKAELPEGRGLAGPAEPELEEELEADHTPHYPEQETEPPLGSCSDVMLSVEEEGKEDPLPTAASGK

[3] = target: T2, CD30 expressed on cells (CD30-293T, …); test: cell-based or functional assay; remark: listed apart in the source

B1: T1-23 anti-CD30 scFv-Fc (Fc fusion)
scFv: EVQLLESGGGLVQPGGSLRLSCAASGFTFSSYSMSWVRQAPGKGLEWVSGIGYPYYTYYADSVKGRFTISRDNSKNTLYLQMNSLRAEDTAVYYCARYYYDYGFDYWGQGTLVTVSSGGGGSGGGGSGGGGSQSVLTQPPSASGTPGQRVTISCSGSSSNIGSNYVYWYQQLPGTAPKLLIYRNNQRPSGVPDRFSGSKSGTSASLAISGLRSEDEADYYCAAYRSYDYVFGGGTKLTVLG
notes: scFv-Fc-conjugated form (Zb-Fc); also called Zb-Fc form; not shown: Fc of the scFv-Fc (Zb-Fc) form and its junction
Q: How did the EC50 [1] turn out when B1 was run?
A: The EC50 was 0.023 µg/mL.

B2: T1-159 anti-CD30 scFv-Fc (Fc fusion)
scFv: EVQLLESGGGLVQPGGSLRLSCAASGFTFSSYGMSWVRQAPGKGLEWVSSIYYYSGGTYYADSVKGRFTISRDNSKNTLYLQMNSLRAEDTAVYYCARNDYRNNSDFDYWGQGTLVTVSSGGGGSGGGGSGGGGSQSVLTQPPSASGTPGQRVTISCSGSSSNIGSNYVYWYQQLPGTAPKLLIYRNNQRPSGVPDRFSGSKSGTSASLAISGLRSEDEADYYCAAYYPYYYVFGGGTKLTVLG
notes: scFv-Fc-conjugated form (Zb-Fc); also called Zb-Fc form; not shown: Fc of the scFv-Fc (Zb-Fc) form and any junction to it
Q: B2 was tested. Which EC50 [1] did it give?
A: Its EC50 is 0.26 µg/mL.

B3: T1-9 anti-CD30 scFv-Fc (Fc fusion)
scFv: EVQLLESGGGLVQPGGSLRLSCAASGFTFSYYGMSWVRQAPGKGLEWVSGIGSYSSYTYYADSVKGRFTISRDNSKNTLYLQMNSLRAEDTAVYYCARYASSPDAYFDYWGQGTLVTVSSGGGGSGGGGSGGGGSQSVLTQPPSASGTPGQRVTISCSGSSSNIGSNYVYWYQQLPGTAPKLLIYRNNQRPSGVPGRFSGSKSGTSASLAISGLRSEDEADYYCAAYYNYNYVFGGGTKLTVLG
notes: as for B1
Q: Which EC50 [1] does the source give for B3 here?
A: Its EC50 is 0.026 µg/mL.

B4: T1-7 anti-CD30 scFv-Fc (Fc fusion)
scFv: EVQLLESGGGLVQPGGSLRLSCAASGFTFSGYGMSWVRQAPGKGLEWVSYISSGSYYTYYADSVKGRFTISRDNSKNTLYLQMNSLRAEDTAVYYCARYRGDNDYYGYFDYWGQGTLVTVSSGGGGSGGGGSGGGGSQSVLTQPPSASGTPGQRVTISCSCSSSNIGNNAVSWYQQLPGTAPKLLIYRNNQRPSGVPDRFSGSKSGTSASLAISGLRSEDEADYYCAADYGSDYVFGGGTKLTVLG
notes: as for B2
Q: For B4, which EC50 [1] is on record?
A: The EC50 was 0.048 µg/mL.

B5: T1-36 anti-CD30 scFv-Fc (Fc fusion)
scFv: EVQLLESGGGLVQPGGSLRLSCAASGFTFSYYYMSWVRQAPGKGLEWVSYIGGGGSGTYYADSVKGRFTISRDNSKNTLYLQMNSLRAEDTAVYYCARGPYYGYFDYWGQGTLVTVSSGGGGSGGGGSGGGGSQSVLTQPPSASGTPGQRVTISCSGSSSNIGSNYVYWYQQLPGTAPKLLIYRNNQRPSGVPDRFSGSKSGTSASLAISGLRSEDEADYYCAAYPSYDSYVFGGGTKLTVLG
notes: as for B1
Q: B5 was tested. Which EC50 [1] did it give?
A: Its EC50 is 0.021 µg/mL.

B6: T2-2 anti-CD30 scFv-Fc (Fc fusion)
chain: EVQLLESGGGLVQPGGSLRLSCAASGFTFSSYHMSWVRQAPGKGLEWVSGIGYGHGGTYYADSVKGRFTISRDNSKNTLYLQMNSLRAEDTAVYYCARYDYDYSFDYWGQGTLVTVSSGGGGSGGGGSGGGGSQSVLTQPPSASGTPGQRVTISCSGSSSNIGSNYVYWYQQLPGTAPKLLIYRNNQRPSGVPDRFSGSKSGTSASLAISGLRSEDEADYYCAVSSPYSYVFGGGTKLTVLG
notes: scFv-Fc-conjugated form (Zb-Fc); also called Zb-Fc form; not shown: Fc of the scFv-Fc form (Zb-Fc)
Q: Which EC50 [1] does the source give for B6 here?
A: Its EC50 is 0.038 µg/mL.

B7: T1-8 anti-CD30 scFv-Fc (Fc fusion)
scFv: EVQLLESGGGLVQPGGSLRLSCAASGFTFSSYMSWVRQAPGKGLEWVSSIGSGYYSTYYADSVKGRFTISRDNSKNTLYLQMNSLRAEDTAVYYCARDYYGGFDYWGQGTLVTVSSGGGGSGGGGSGGGGSQSVLTQPPSASGTPGQRVTISCSGSSSNIGSNYVYWYQQLPGTAPKLLIYRNNQRPSGVPDRFSGSKSGTSASLAISGLRSEDEADYYCAAYDSYSYVFGGGTKLTVLG
notes: scFv-Fc-conjugated form (Zb-Fc); also called Zb-Fc form; not shown: Human Fc of the scFv-Fc (Zb-Fc) form and its junction to the scFv
Q: Which EC50 [1] does the source give for B7 here?
A: Its EC50 is 0.051 µg/mL.

B8: T1-117 anti-CD30 scFv-Fc (Fc fusion)
scFv: EVQLLESGGGLVQPGGSLRLSCAASGFTFSYYGMSWVRQAPGKGLEWVSYISGYSSYTYYADSVKGRFTISRDNSKNTLYLQMNSLRAEDTAVYYCARYNDSGSFDYWGQGTLVTVSSGGGGSGGGGSGGGGSQSVLTQPPSASGTPGQRVTISCSGSSSNIGSNYVYWYQQLPGTAPKLLIYRNNQRPSGVPDRFSGSKSGTSASLAISGLRSEDEADYYCAADAGNRYVFGGGTKLTVLG
notes: as for B1
Q: With B8 as the binder, how does the EC50 [1] read?
A: Its EC50 is 0.157 µg/mL.

B9: T1-141 anti-CD30 scFv-Fc (Fc fusion)
scFv: EVQLLESGGGLVQPGGSLRLSCAASGFTFSYYDMSWVRQAPGKGLEWVSGIYGSGSTYYADSVKGRFTISRDNSKNTLYLQMNSLRAEDTAVYYCARYSYYDSYSDYFDYWGQGTLVTVSSGGGGSGGGGSGGGGSQSVLTQPPSASGTPGQRVTISCSGSSSNIGSNYVYWYQQLPGTAPKLLIYRNNQRPSGVPDRFSGSKSGTSASLAISGLRSEDEADYYCAAYSYGYYVFGGGTKLTVLG
notes: as for B1
Q: With B9 as the binder, how does the EC50 [1] read?
A: Its EC50 is 0.026 µg/mL.

B10: scFv CAR of anti CD30 antibody (T1-8), on CAR-T cells (other)
chain: EVQLLESGGGLVQPGGSLRLSCAASGFTFSSYMSWVRQAPGKGLEWVSSIGSGYYSTYYADSVKGRFTISRDNSKNTLYLQMNSLRAEDTAVYYCARDYYGGFDYWGQGTLVTVSSGGGGSGGGGSGGGGSQSVLTQPPSASGTPGQRVTISCSGSSSNIGSNYVYWYQQLPGTAPKLLIYRNNQRPSGVPDRFSGSKSGTSASLAISGLRSEDEADYYCAAYDSYSYVFGGGTKLTVLGGQAGQTTTPAPRPPTPAPTIASQPLSLRPEACRPAAGGAVHTRGLDFACDIYIWAPLAGTCGVLLLSLVITLYCKRGRKKLLYIFKQPFMRPVQTTQEEDGCSCRFPEEEEGGCELRVKFSRSADAPAYQQGQNQLYNELNLGRREEYDVLDKRRGRDPEMGGKPRRKNPQEGLYNELQKDKMAEAYSEIGMKGERRRGKGHDGLYQGLSTATKDTYDALHMQALPPR
Q: B10 was tested. Which “Cytotoxicity (%) against CD30-expressing cell (SUDHL1), CAR-T/Target 0.11” value [2] did it give?
A: Its value is 43%.

Q: And the “Cytotoxicity (%) against CD30-expressing cell (SUDHL1), CAR-T/Target 0.33” value [2]?
A: The value was 60%.

Q: What about the “Cytotoxicity (%) against CD30-expressing cell (SUDHL1), CAR-T/Target 1” value [2] of the same binder?
A: The value was 78%.

Q: What about the “Cytotoxicity (%) against CD30-expressing cell (CD30-293T), CAR-T/Target 0.11” value [3] of the same binder?
A: The value was -8%.

Q: What about the “Cytotoxicity (%) against CD30-expressing cell (CD30-293T), CAR-T/Target 0.33” value [3] of the same binder?
A: Its value is 0%.

Q: What about the “Cytotoxicity (%) against CD30-expressing cell (CD30-293T), CAR-T/Target 1” value [3] of the same binder?
A: Its value is 35%.

B11: T1-10 anti-CD30 scFv-Fc (Fc fusion)
scFv: EVQLLESGGGLVQPGGSLRLSCAASGFTFSSYGMSWVRQAPGKGLEWVSYISGGSYYTYYADSVKGRFTISRDNSKNTLYLQMNSLRAEDTAVYYCARYGYGYYDGSFDYWGQGTLVTVSSGGGGSGGGGSGGGGSQSVLTQPPSASGTPGQRVTISCSGSSSNIGSNYVYWYQQLPGTAPKLLIYRNNQRPSGVPDRFSGSKSGTSASLAISGLRSEDEADYYCAADGPYNYVFGGGTKLTVLG
notes: as for B1
Q: For B11, which EC50 [1] is on record?
A: Its EC50 is 0.031 µg/mL.

B12: T1-2 anti-CD30 scFv-Fc (Fc fusion)
scFv: EVQLLESGGGLVQPGGSLRLSCAASGFTFSGYGMSWVRQAPGKGLEWVSYISGYSYYTYYADSVKGRFTFSRDNSKNTLYLQMNSLRAEDTAVYYCARYDGNGFDYWGQGTLVTVSSGGGGSGGGGSGGGGSQSVLTQPPSASGTPGQRVTISCSGSSSNIGSNYVYWYQQLPGTAPKLLIYRNNQRPSGVPDRFSGSKSGTSASLAISGLRSEDEADYYCAADSSDDSYVFGGGTKLTVLG
notes: Cloned in an scFv-Fc-conjugated form (Zb-Fc); detected with anti-human IgG Fc; also called Zb-Fc form; not shown: Fc of the scFv-Fc (Zb-Fc) form and any junction to it
Q: With B12 as the binder, how does the EC50 [1] read?
A: Its EC50 is 0.06 µg/mL.
